# Laboratory results reported in US20240368575A1, “AN ENGINEERED YEAST CELL FOR THE DELIVERY OF ANTIBIOTIC-INACTIVATING ENZYMES” (priority 2021, published 2024).
# Key:
# [1] = system: C[C@@H](O)[C@H]1C(=O)N2C(C(=O)O)=C(SCCN=CN)C[C@H]12; assay: purified protein, by the assay type; conditions: other: purified BL3 protein, assay with imipenem, 30° C., 50 mM HEPES pH 7.5, 50 μM ZnSO4
# [2] = system: CC1(C)S[C@@H]2[C@H](NC(=O)[C@H](N)c3ccccc3)C(=O)N2[C@H]1C(=O)O; assay: Steady-state kinetic parameters of purified BL (P3A) beta-lactamase, ampicillin hydrolysis; assay type: biochemical, Bacillus licheniformis 749/C; conditions: other: purified BL protein, assay with ampicillin, 30° C., 50 mM HEPES pH 7.5
# [3] = target: VIM-2 metallo-beta-lactamase variant (BL2), SEQ ID NO:115 (parent VIM-2, SEQ ID NO:8) (Pseudomonas aeruginosa, UniProt Q9K2N0, E156D/Q48H/Q60R/V27S/V36A); assay: Steady-state kinetic parameters of purified BL2 beta-lactamase, imipenem hydrolysis; assay type: biochemical; conditions: purified BL2 protein; assay with imipenem, 30° C., 50 mM HEPES pH 7.5, 50 μM ZnSO4
# Protocol: β-lactamase genes bl2 and bl3, encoding respectively the metallo β-lactamases VIM-2 variant of amino acid sequence SEQ ID NO:115 and BcII from Bacillus cereus of amino acid sequence SEQ ID NO:117, were heterologously expressed in S. boulardii.
# Each sample was measured in triplicates.
# [4] = target: P3A variant of the beta-lactamase from Bacillus licheniformis 749/C (BL), SEQ ID NO: 12 (Bacillus licheniformis, UniProt P00808, D288N); assay: Steady-state kinetic parameters of purified BL (P3A) beta-lactamase, ampicillin hydrolysis; assay type: biochemical; conditions: purified BL protein; assay with ampicillin, 30° C., 50 mM HEPES pH 7.5
# P3A variant of the beta-lactamase from Bacillus licheniformis 749/C (BL), SEQ ID NO: 12, sequence (P00808 46-307 D288N): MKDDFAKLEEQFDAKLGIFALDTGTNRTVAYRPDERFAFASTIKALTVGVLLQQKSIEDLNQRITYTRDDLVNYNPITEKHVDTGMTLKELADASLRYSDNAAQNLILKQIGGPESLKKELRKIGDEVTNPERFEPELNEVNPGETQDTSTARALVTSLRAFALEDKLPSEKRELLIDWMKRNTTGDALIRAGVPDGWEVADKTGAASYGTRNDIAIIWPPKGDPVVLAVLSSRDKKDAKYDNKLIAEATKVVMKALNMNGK
molecule,measurement,setting,value
"BcII metallo-beta-lactamase from Bacillus cereus (BL3), SEQ ID NO:117 (Bacillus cereus)",Km,[1],220 µM
same,kcat,[1],115 s⁻¹
"P3A variant of the beta-lactamase from Bacillus licheniformis 749/C (BL), SEQ ID NO: 12 (Bacillus licheniformis; D288N)",Km,[2],180 µM
C[C@@H](O)[C@H]1C(=O)N2C(C(=O)O)=C(SCCN=CN)C[C@H]12 [imipenem],Km,[3],12 µM
same,kcat,[3],200 s⁻¹
CC1(C)S[C@@H]2[C@H](NC(=O)[C@H](N)c3ccccc3)C(=O)N2[C@H]1C(=O)O [ampicillin],kcat,[4],"1,345 s^−1"
